Measurements from PMC9884275, “Metamorphism in TDP-43 prion-like domain determines chaperone recognition” (Nature Communications, 2023).

How the values were obtained:
Conditions in all cases: both partners purified
[1] = biological target: T1, DNAJC7 (human, UniProt Q99615 1-494); assay: NMR titration; 15N-HSQC at 15 °C, 800 MHz; 25–35 μM 15N/13C-labelled PLD with HSP72 and a JDP at 1:2:2 molar ratio (PLD:HSP70:co-chaperone), NMR buffer with 10 mM DTT
T1 construct: DNAJC7, human, cDNA cloned into pET28a (GenScript); also called HSP40 (class C JDP)
T1 sequence (looked up): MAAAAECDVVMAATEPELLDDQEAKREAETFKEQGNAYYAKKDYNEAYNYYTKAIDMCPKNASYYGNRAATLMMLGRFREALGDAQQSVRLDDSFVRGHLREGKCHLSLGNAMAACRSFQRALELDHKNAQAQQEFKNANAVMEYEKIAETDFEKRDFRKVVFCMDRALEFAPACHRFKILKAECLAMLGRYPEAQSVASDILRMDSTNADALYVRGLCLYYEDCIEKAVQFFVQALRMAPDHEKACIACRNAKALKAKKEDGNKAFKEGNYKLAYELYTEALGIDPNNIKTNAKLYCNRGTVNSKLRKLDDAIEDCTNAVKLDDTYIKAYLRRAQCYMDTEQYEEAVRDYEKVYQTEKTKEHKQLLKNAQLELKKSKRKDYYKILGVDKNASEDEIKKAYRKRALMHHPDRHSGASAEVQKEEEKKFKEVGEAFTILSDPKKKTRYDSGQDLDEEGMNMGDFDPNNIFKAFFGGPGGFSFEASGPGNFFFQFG

[2] = biological target: T2, DNAJB1 (human, UniProt P25685 1-340); assay: as above
T2 construct: DNAJB1, human, cDNA cloned into pET28a (GenScript); also called HSP40 (class B JDP)
T2 sequence (P25685 whole entry): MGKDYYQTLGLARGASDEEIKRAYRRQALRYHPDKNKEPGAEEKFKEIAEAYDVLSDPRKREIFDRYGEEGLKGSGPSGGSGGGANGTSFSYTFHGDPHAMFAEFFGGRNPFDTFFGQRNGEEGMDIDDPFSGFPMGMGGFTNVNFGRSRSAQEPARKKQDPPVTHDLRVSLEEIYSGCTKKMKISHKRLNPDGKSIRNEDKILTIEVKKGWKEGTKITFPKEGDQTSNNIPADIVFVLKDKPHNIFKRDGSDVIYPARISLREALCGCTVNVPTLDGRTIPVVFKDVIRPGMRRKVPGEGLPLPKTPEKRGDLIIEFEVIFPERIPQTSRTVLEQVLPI

[3] = biological target: T3, DNAJB4 (human, UniProt Q9UDY4 1-337); assay: as above
T3 construct: DNAJB4, human, cDNA cloned into pET28a (GenScript); also called HSP40 (class B JDP)
T3 sequence (Q9UDY4 whole entry): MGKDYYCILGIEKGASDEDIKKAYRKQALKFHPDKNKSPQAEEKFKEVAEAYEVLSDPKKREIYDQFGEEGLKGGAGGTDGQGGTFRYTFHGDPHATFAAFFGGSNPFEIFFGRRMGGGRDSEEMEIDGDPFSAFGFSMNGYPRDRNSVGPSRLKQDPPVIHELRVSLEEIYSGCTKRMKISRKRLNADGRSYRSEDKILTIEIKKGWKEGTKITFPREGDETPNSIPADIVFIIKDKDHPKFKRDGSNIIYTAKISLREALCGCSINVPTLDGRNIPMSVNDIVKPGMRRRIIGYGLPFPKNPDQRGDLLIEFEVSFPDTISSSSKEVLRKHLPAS

[4] = biological target: T4, DNAJA2 (human, UniProt O60884 1-412); assay: NMR titration; 15N-HSQC at 15 °C, 800 MHz; 25–35 μM 15N/13C-labelled PLD in NMR buffer with 10 mM DTT (5 mM ZnCl2 for DNAJA2); unlabelled JDP co-chaperones added; signal intensity decay shown at 1:2 molar ratio
T4 construct: DNAJA2, human, cDNA cloned into pET28a (GenScript); 5 mM ZnCl2 and 10 mM DTT were added to its NMR samples; also called HSP40 (class A JDP)
T4 sequence (O60884 whole entry): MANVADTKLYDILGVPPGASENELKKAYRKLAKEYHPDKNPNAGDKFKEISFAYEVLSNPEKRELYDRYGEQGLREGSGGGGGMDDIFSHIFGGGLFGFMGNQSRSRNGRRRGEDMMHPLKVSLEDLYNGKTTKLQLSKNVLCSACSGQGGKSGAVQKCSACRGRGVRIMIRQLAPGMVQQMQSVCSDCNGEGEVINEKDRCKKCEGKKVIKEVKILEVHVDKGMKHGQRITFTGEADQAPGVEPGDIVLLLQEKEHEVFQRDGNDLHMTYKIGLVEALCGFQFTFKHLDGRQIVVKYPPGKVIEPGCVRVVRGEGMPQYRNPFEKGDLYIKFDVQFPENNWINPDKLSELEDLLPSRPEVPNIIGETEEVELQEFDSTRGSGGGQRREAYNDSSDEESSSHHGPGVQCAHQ

Measured: binding result

B1: TDP-43 prion-like domain (fragment 274-414 of human TDP-43) (domain or fragment, UniProt Q13148 274-414, looked up)
chain: GRFGGNPGGFGNQGGFGNSRGGGAGLGNNQGSNMGGGMNFGAFSINPAMMAAAQAALQSSWGMMGMLASQQNQSGPSGNNQNQGNMQREPNQAFGSGNNSYSGSNSGAAIGWGSASNAGSGSGFNGGFGSSMDSKSSGWGM
notes: TDP-43, human, UniProt Q13148, C-terminal prion-like domain, residues 274-414; 15N/13C-labelled for the NMR experiments; also called PLD; TDP-43 PLD; not shown: Thioredoxin (TXA), N-terminal, cleaved; His6, N-terminal, cleaved
binds: [1] | [2] | [3] | [4]
